Data reported in the supplement of paper PMC7877785.
± gives the uncertainty stated by the source.

Assay: self-splicing fitness, log relative to wild type (ln ratio); higher = more splicing; Tetrahymena group I intron in knt gene, E. coli kanamycin selection, DiMSum; sequences stand for … in CUCUCU…GGAGGGAAAAGUUAUCAGGCAUGCACCUGGUAGCUAGUCUUUAAACCAAUAGAUUGCAUCGGUUUAAAAGGCAAGACCGUCAAAUUGCGGGAAAGGGGUCAACAGCCGUUCAGUACCAAGUCUCAGGGGAAACUUUGAGAUGGCCUUGCAAAGGGUAUGGUAAUAAGCUGACGGACAUGGUCCUAACCACGCAGCCAAGUCCUAAGUCAACAGAUCUUCUGUUGAUAUGGAUGCAGUUCACAGACUAAAUGUCGGUCGGGGAAGAUGUAUUCUUCUCAUAAGAUAUAGUCGGACCUCUCCUUAAUGGGAGCUAGCGGAUGAAGUGAUGCAACACUGGAGCCGCUGGGAACUAAUUUGUAUGCGAAAGUAUAUUGAUUAGUUUUGGAGUACUCGUGGUCG
Procedure, shortened: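 Colonies from six replicate transformations of E. coli BL21(DE3) were pooled and amplicon-sequenced on an Illumina HiSeq 2500. The library placed an intron with all eight P1ex-region nucleotides randomised inside the knt kanamycin-resistance gene on pET-22b(+), and cells grew overnight at 37°C or 30°C on LB agar with or without 25 μg/mL kanamycin (plus 100 μg/mL carbenicillin, 50 μM IPTG, 0.2% rhamnose). Fitness is the DiMSum error-weighted combination of wild-type-normalised replicate fold changes, kanamycin versus none.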

Sequence | self-splicing fitness (ln) (30 °C) | self-splicing fitness (ln) (37 °C)
AAAUAGCAAUAUUACGGUAG | -3.63 ± 0.22 | -2.62 ± 0.23
AAAUAGCAAUAUUACGGUUA | -0.483 ± 0.077 | -0.546 ± 0.08
AAAUAGCAAUAUUACGUAGA | -3.32 ± 0.17 | -0.484 ± 0.1
AAAUAGCAAUAUUACGUCUG | -1.3 ± 0.068 | -0.843 ± 0.088
AAAUAGCAAUAUUACGUGAG | -1.19 ± 0.078 | -0.609 ± 0.11
AACAAGCAAUAUUACGACUG | -0.961 ± 0.099 | -0.786 ± 0.11
AACAAGCAAUAUUACGACUU | -0.0432 ± 0.046 | 0.207 ± 0.064
AACAAGCAAUAUUACGAGCA | -1.22 ± 0.099 | -0.153 ± 0.11
AACAAGCAAUAUUACGAGGU | -4.04 ± 0.21 | -3.54 ± 0.17
AACAAGCAAUAUUACGAGUA | -1.5 ± 0.078 | -0.465 ± 0.08
AACAAGCAAUAUUACGCAAA | -2.08 ± 0.17 | 0.267 ± 0.13
AACAAGCAAUAUUACGCAGA | -2.2 ± 0.11 | -0.924 ± 0.095
AACAAGCAAUAUUACGCAUA | -1.8 ± 0.12 | -1.04 ± 0.13
AACAAGCAAUAUUACGCCGC | -3.05 ± 0.31 | -1.94 ± 0.36
AACAAGCAAUAUUACGCCUC | -1.75 ± 0.14 | -0.437 ± 0.15
AACAAGCAAUAUUACGCGCG | -0.623 ± 0.093 | 0.651 ± 0.11
AACAAGCAAUAUUACGCUAA | -2.12 ± 0.11 | -0.523 ± 0.091
AACAAGCAAUAUUACGGCAG | -1.53 ± 0.11 | -1.4 ± 0.13
AACAAGCAAUAUUACGGCAU | -0.11 ± 0.057 | -0.0731 ± 0.073
AACAAGCAAUAUUACGGGAC | -2.86 ± 0.12 | -1.17 ± 0.12
AACAAGCAAUAUUACGGGGC | – | -2.18 ± 0.23
AACAAGCAAUAUUACGUAAA | -2.36 ± 0.09 | -1.17 ± 0.098
AACAAGCAAUAUUACGUAGC | -3.1 ± 0.09 | -2.07 ± 0.1
AACAAGCAAUAUUACGUCCC | -0.608 ± 0.12 | -0.718 ± 0.17

Sequence | self-splicing fitness (ln) (30 °C) | self-splicing fitness (ln) (37 °C)
AACAAGCAAUAUUACGUUCG | -2.86 ± 0.1 | -1.76 ± 0.13
AACAAGCAAUAUUACGUUUC | -4.46 ± 0.22 | -2.95 ± 0.15
AACCAGCAAUAUUACGAACA | -0.809 ± 0.07 | 0.214 ± 0.07
AACCAGCAAUAUUACGAAGG | -3.19 ± 0.23 | -1.8 ± 0.22
AACCAGCAAUAUUACGACCG | -0.744 ± 0.087 | -0.237 ± 0.14
AACCAGCAAUAUUACGAGCG | -1.14 ± 0.072 | -0.281 ± 0.084
AACCAGCAAUAUUACGCAAC | -2.78 ± 0.13 | -0.698 ± 0.11
AACCAGCAAUAUUACGCAAU | -1.86 ± 0.081 | -0.25 ± 0.098
AACCAGCAAUAUUACGCAUU | -1.58 ± 0.068 | 0.096 ± 0.086
AACCAGCAAUAUUACGCCAC | -3.16 ± 0.19 | -2.97 ± 0.4
AACCAGCAAUAUUACGCGAC | -2.27 ± 0.14 | -1.2 ± 0.12
AACCAGCAAUAUUACGCUAG | -2.62 ± 0.082 | -0.715 ± 0.08
AACCAGCAAUAUUACGCUCU | -0.0812 ± 0.054 | 0.0106 ± 0.07
AACCAGCAAUAUUACGCUGG | -2.8 ± 0.14 | -2.25 ± 0.19
AACCAGCAAUAUUACGCUUC | -4.25 ± 0.16 | -2.3 ± 0.11
AACCAGCAAUAUUACGGAGG | -1.36 ± 0.076 | -0.444 ± 0.12
AACCAGCAAUAUUACGGAUU | -2.07 ± 0.071 | -1.08 ± 0.087
AACCAGCAAUAUUACGGCUG | -3.63 ± 0.14 | -3.05 ± 0.16
AACCAGCAAUAUUACGGGCA | -0.402 ± 0.041 | 0.117 ± 0.053
AACCAGCAAUAUUACGGUAG | -1.99 ± 0.058 | -1.02 ± 0.066
AACCAGCAAUAUUACGUACC | -0.685 ± 0.08 | 0.0338 ± 0.11
AACCAGCAAUAUUACGUAGG | -2.67 ± 0.089 | -1.79 ± 0.099
AACCAGCAAUAUUACGUAUA | -1.4 ± 0.072 | -0.853 ± 0.088
